Reference: patent US20140050719A1 (GlaxoSmithKline, published 2014)

Target: T1, human Aβ peptide (1-40) biotinylated at the C terminus (human, UniProt P05067 672-711, biotinylated at the C terminus)
T1 construct: domain: beta-amyloid peptide (1-40); the peptide starts at the BACE-1 cleavage site (DAEFRHD...); also called beta-amyloid 1-40 peptide (biotinylated at the C-terminus); streptavidin-captured beta-amyloid (1-40)
Assay: Biacore SPR, similar to Method A(i); streptavidin-captured beta-amyloid (1-40), Fab in solution

T1 sequence (P05067 672-711 limits assumed): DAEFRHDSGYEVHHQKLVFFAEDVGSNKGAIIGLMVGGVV

- Kd: ~2.4 nM
B1: Fab fragments of H2L1, obtained by papain digestion (Fab, V domains shown)
VH: EVQLVESGGGLVQPGGSLRLSCAVSGFTFSDNGMAWVRQAPGKGLEWVSFISNLAYSIDYADTVTGRFTISRDNAKNSLYLQMNSLRAEDTAVYYCVSGTWFAYWGQGTLVTVSS
VL: DIVMTQSPLSLPVTPGEPASISCRVSQSLLHSNGYTYLHWYLQKPGQSPQLLIYKVSNRFSGVPDRFSGSGSGTDFTLKISRVEAEDVGVYYCSQTRHVPYTFGGGTKVEIKR
notes: also called H2L1 Fab
